Patent US20150307599A1 (GARVAN INSTITUTE OF MEDICAL RESEARCH, published 2015)
Where no end group is shown, it is not given here.

Tests used:
Peptide 3p6 (ala-NPFF) = molecular target: T1, Peptide 3p6 (ala-NPFF); assay: SPR (Biacore), FIG. 12
T1 construct: Last 8 residues of NPFF on a poly-alanine helix
T1 peptide: AAAAAAAAAFLFQPQRF-NH2
Protocol: (§1) Epitope mapping and determination of the affinity of MAb 5E12-B7 was also performed using a Biacore 2000 unit (GE Healthcare). Briefly, purified MAb 5E12-B7 was biotinylated as described above, except that the biotinylation reaction was performed at a 20:1 molar ratio of biotin:Ig. An SA-Chip (GE Healthcare) was docked into the Biacore 2000 unit and HBS-EP buffer (GE) was allowed to run over all 4 flow channels at 40 μL/min until signal had stabilized. The flow path was then switched to channel 4 only and HBS-EP containing 60 μg/mL biotinylated antibody was injected at 40 μL/min for 5 min to couple MAb 5E12-B7 to the chip via biotin-streptavidin binding. HBS-EP buffer was then run over channel 4 at 40 μL/min for over 30 min to remove all uncoupled Ig from the Biacore system then the flow path was changed to pass through all 4 flow channels. Association and dissociation of the peptides in Table 3 was measured using the Biacore Application Wizard. In each case, a baseline was established by passing HBS-EP over all 4 channels at 40 μL/min for 1 min before association was measure by injection of peptide (diluted to 1, 10, 100 or 1000 nM in HBS-EP) at 40 μL/min for 5 min. Dissociation was measured by allowing HBS-EP to pass over all 4 channels at 40 μL/min for 30 min. The kd, kₐ and KD were determined for each peptide by curve fitting using the BIAevalutation software.

[1] = molecular target: T2, Peptide 3p7 (Brain Neuropeptide I); assay: SPR (Biacore), FIG. 12
T2 peptide: AGEGLSSPFWSLAAPQRF-NH2
Protocol: as §1

[2] = molecular target: T3, Peptide 3p8 (Poly alanine with last 4 residues NPFF); assay: SPR (Biacore), FIG. 12
T3 peptide: AAAAAAAAAAAAAPQRF-NH2
Protocol: as §1

[3] = molecular target: T4, Peptide 3p17 (NPY C terminus with similar a.a. substitutions); assay: SPR (Biacore), FIGS. 11A and 11B
T4 construct: Poly-alanine 17-mer ending QRH-amide
T4 peptide: AAAAAAAAAAAAAAQRH-NH2
Protocol: as §1

[4] = molecular target: T5, Peptide 3p18 (NPY C terminus with similar a.a. substitutions); assay: SPR (Biacore), FIGS. 11A and 11B
T5 construct: Poly-alanine 17-mer ending QRF-amide
T5 peptide: AAAAAAAAAAAAAAQRF-NH2
Protocol: as §1

[5] = molecular target: T6, Peptide 3p19 (NPY C terminus with similar a.a. substitutions); assay: SPR (Biacore), FIGS. 11A and 11B
T6 construct: Poly-alanine 17-mer ending QRW-amide
T6 peptide: AAAAAAAAAAAAAAQRW-NH2
Protocol: as §1

[6] = molecular target: T7, Peptide 1p16 (NPY last 17 residues Alanine Scan) (C-terminal amide (-NH2)); assay: indirect ELISA, peptide coated at 20 ug/mL, MAb at 1 ug/mL
T7 construct: NPY 25-mer with alanine at NPY residue 34
Protocol: (§2) ELISA was used to map the reactivity of purified MAb 5E12-B7 against the peptides described in Table 3. Briefly, ELISA microwell plates (96-well Maxisorp, Nunc) were coated overnight at 4° C. with 50 μL of mapping peptides (Table 3) diluted to 20 μg/mL in carbonate coating buffer (CCB). Between each of the following steps, microwell plates were washed three times with PBST using a plate washer (BioTek). Coated wells were blocked with 200 μL PBS containing 5% w/v skim milk (Diploma). Blocked wells were incubated for 1 hr with 50 μL of MAb 5E12-B7 diluted to 1 μg/mL in skim milk/PBST. Wells were then incubated for 1 hr with 50 μL Peroxidase-conjugated AffiniPure F(ab)2 fragment goat anti-mouse secondary antibody (Jackson) diluted 1:5000 in skim milk/PBST. Ig binding was detected by incubation of wells with 50 μL TMB substrate (Becton Dickinson). Substrate reaction was stopped after 15 min with 50 μL 1M H₂SO₄ and O.D. 450 nm was measured.

[7] = molecular target: T8, Peptide 1p17 (NPY last 17 residues Alanine Scan) (C-terminal amide (-NH2)); assay: as above
T8 construct: NPY 25-mer with alanine at NPY residue 35
Protocol: as §2

[8] = molecular target: T9, Peptide 1p18 (NPY last 17 residues Alanine Scan) (C-terminal amide (-NH2)); assay: as above
T9 construct: NPY 25-mer with alanine at NPY residue 36
Protocol: as §2

[9] = molecular target: T10, Peptide 2p15 (Poly Ala with shrinking NPY C term); assay: as above
T10 construct: 15 alanines followed by RY-amide
T10 peptide: AAAAAAAAAAAAAAARY-NH2
Protocol: as §2

[10] = molecular target: T11, Peptide 2p16 (Poly Ala with shrinking NPY C term); assay: as above
T11 construct: 16 alanines followed by Y-amide
T11 peptide: AAAAAAAAAAAAAAAAY-NH2
Protocol: as §2

[11] = molecular target: T12, Peptide 2p17 (HBY with polyAlanine C terminus) (C-terminal amide (-NH2)); assay: as above
T12 construct: HBY with four alanine residues added to the C-terminus
T12 peptide: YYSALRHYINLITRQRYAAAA
Protocol: as §2

NPY (mouse NPY, Phoenix) = molecular target: T13, NPY (mouse NPY, Phoenix) (mouse, C-terminal amide (-NH2)); assay: SPR (Biacore 2000), biotinylated MAb on SA chip, peptide in solution
T13 construct: 36-residue whole peptide bought from Phoenix Peptides; also called mNPY; neuropeptide Y
Protocol: as §1
(§3) The affinity of MAb 5E12-B7 to NPY, PYY and PP peptides was measured using a Biacore-2000 (GE-healthcare). Biotinylated MAb was loaded onto a single channel of a streptavidin chip, and dilute samples (1 nM-1 μM) of NPY, mPYY, hPYY, mPP and hPP were then run over all four channels of the chip to obtain blank-subtracted readings for peptide on and off-rates. Using this method, significant and/or detectable binding of MAb 5E12-B7 to NPY, mPYY and hPYY was detected. In contrast, no significant and/or detectable binding to mPP and hPP could be detected.

human PYY (Phoenix) = molecular target: T14, human PYY (Phoenix) (human, C-terminal amide (-NH2)); assay: as above
T14 construct: 36-residue whole peptide; also called hPYY
Protocol: as §1, §3

1p22-MARYYSALRH = molecular target: T15, 1p22-MARYYSALRH; assay: indirect ELISA, peptide coated on the plate (20 µg/mL), MAb 5E12-B7 at 1 µg/mL, O.D. 450 nm
T15 construct: NPY residues 17-26; also called Peptide 1p22 (10 mer shifting across NPY)
T15 peptide: MARYYSALRH-NH2
Protocol: as §2

T14 sequence (peptide, as listed by the source): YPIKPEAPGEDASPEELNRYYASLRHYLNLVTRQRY

- binding result (Peptide 3p6 (ala-NPFF)): no binding
- binding result [1]: no binding
- binding result [2]: no binding
- binding result [3]: no binding
- binding result [4]: no binding
- binding result [5]: no binding
- binding result [6]: no binding
- binding result [7]: no binding
- binding result [8]: no binding
- binding result [9]: no binding
- binding result [10]: no binding
- binding result [11]: no binding
- Kd (NPY (mouse NPY, Phoenix)): 9.79 nM
- koff (NPY (mouse NPY, Phoenix)): 0.00142 s⁻¹
- kon (NPY (mouse NPY, Phoenix)): 149000 M⁻¹ s⁻¹
- Kd (human PYY (Phoenix)): 5.97 nM
- koff (human PYY (Phoenix)): 0.00138 s⁻¹
- kon (human PYY (Phoenix)): 251000 M⁻¹ s⁻¹
- binding result (1p22-MARYYSALRH): no binding (tested: 1 µg/mL)
B1: MAb 5E12-B7 (antibody, V domains shown)
VH: QVQLQHPGTEVVKPGASVKLSCKASGYTFTNYWMHWVKQRPGQGLEWIGNIDPSNGGTNYNEKFKSKATLTVDKSSSTAYMQLSSLTSEDSAVYYCASFAYWGQGTLVTVSA
VL: DIQMTQSPASLSASVGETVTITCRASGNIHNYLAWYQQKQGKSPQLLVYNAKTLADGVPSRFSGSGSGTQYSLKISSLRPEDFGSYYCQHFWSPPFTFGSGTKLEIK
notes: Biotinylated for the Biacore and Octet assays; also called PYY/NPY antibody (5E12); anti-NPY/PYY antibody 5E12
